Laboratory results taken from the RNAGym collection of RNA variant scans (doi:10.7554/elife.80360).

B1: HDV Ribozyme (parent)
chain: GGCCGGCAUGGUCCCAGCCUCCUCGCUGGCGCCGGCUGGGCAACAUUCCGAGGGGACCGUCCCCUCGGUAAUGGCGAAUGGGACCCA

Variants of: B1
Test: self-cleavage, relative activity (ratio to wild type); higher = more cleavage; co-transcriptional

Row | Variant | self-cleavage
1 | AGCCGGCAUGGUCCCAGCCUCCUCGCUGGCGCCGGCUGGGCAACAUUCCGAGGGAACCGUCCCCUCGGUAAUGGCGAAUGGGACCCA [G1A G55A] | 0.0519
2 | AGCCGGCAUGGUCCCAGCCUCCUCGCUGGCGCCGGCUGGGCAACAUUCCGAGGGGACCGACCCCUCGGUAAUGGCGAAUGGGACCCA [G1A U60A] | 0.185
3 | AGCCGGCAUGGUCCCAGCCUCCUCGCUGGCGCCGGCUGGGCAACAUUCCGAGGGGACCGUCCCCUCGGUAAUGGCGAAUGGCACCCA [G1A G82C] | 0.133
4 | AGCCGGCAUGGUCCCAGCCUCCUCGCUGGCGCCGGCUGGGCAACAUUCCAAGGGGACCGUCCCCUCGGUAAUGGCGAAUGGGACCCA [G1A G50A] | 0
5 | AGCCGGCAUGGUCCCAGCCGCCUCGCUGGCGCCGGCUGGGCAACAUUCCGAGGGGACCGUCCCCUCGGUAAUGGCGAAUGGGACCCA [G1A U20G] | 0
6 | AGCCGGCAUGUUCCCAGCCUCCUCGCUGGCGCCGGCUGGGCAACAUUCCGAGGGGACCGUCCCCUCGGUAAUGGCGAAUGGGACCCA [G1A G11U] | 0.0992
7 | AGCCGGCAUGAUCCCAGCCUCCUCGCUGGCGCCGGCUGGGCAACAUUCCGAGGGGACCGUCCCCUCGGUAAUGGCGAAUGGGACCCA [G1A G11A] | 0.0779
8 | AGCCGGCAUGGUCCCAGCCUCCUCGCUGGCGCCGGCUGGGCAACAUUCCGAGGGGACCGUCCCCUCGGUAAUGGCGAAUGGGACUCA [G1A C85U] | 0.0755
9 | AGCCGGCAUGGUCCCAGCCUCCUCGCUGGCGCCGGCUGGGCAACAUUCCGAGGGGACCGUCCCCUCGGUAAUGGCGAAUGGGACGCA [G1A C85G] | 0.101
10 | AGCCGGCAUGGUCCCAGCCUCCUCGCUGGCGCCGGCUGGGCAACAUUCCGAGGGGACCGUCCCCUCAGUAAUGGCGAAUGGGACCCA [G1A G67A] | 0.0665
11 | AGCCGGCAUGGUCCCAGCCUCCUCGCUGGCGCCGGCUGGGCAACAUUCCGAGGGGACCGUCCCCUCCGUAAUGGCGAAUGGGACCCA [G1A G67C] | 0
12 | AGCCGGCAUGGUCCCAGCCUCCUCGCUGGCGCCGGCUGGGCAACAUUCCGAGGGGACCGUCCCCUCGGUAAUGGCGAAUCGGACCCA [G1A G80C] | 0.119
13 | AGCCGGCAUGGUCCCAGCCUCCUCGCUGGCGCCGGCUGGGCAACAUUCCGAGGGGACCGUCCCCUCGGCAAUGGCGAAUGGGACCCA [G1A U69C] | 0.104
14 | AGCCGGCAUGGUCCCAGCCUCCUCGCUGGCGCCGGCUGGGCAACAUUCCGAGGGGACCGUCCCCUCGGGAAUGGCGAAUGGGACCCA [G1A U69G] | 0.369
15 | AGCCGGCAUGGUCCCAGCCUCCUCGCUGGCGCCGGCUGGGCAACAUUCCGAGGGGACCGUCCCCUCGGUAAUGGUGAAUGGGACCCA [G1A C75U] | 0.0639
16 | AGCCGGCAUGGUCCCAGCCUCCUCGCUGGCGCCGACUGGGCAACAUUCCGAGGGGACCGUCCCCUCGGUAAUGGCGAAUGGGACCCA [G1A G35A] | 0.101

Row | Variant | self-cleavage
17 | AGCCGGCAUGGUCCCAGCCUCCUCGCUGGCGCCGUCUGGGCAACAUUCCGAGGGGACCGUCCCCUCGGUAAUGGCGAAUGGGACCCA [G1A G35U] | 0.158
18 | AGCCCGCAUGGUCCCAGCCUCCUCGCUGGCGCCGGCUGGGCAACAUUCCGAGGGGACCGUCCCCUCGGUAAUGGCGAAUGGGACCCA [G1A G5C] | 0
19 | AGCCGGCAUGGUCCCAGCCUCCUCGCUGGCGCCGGCUGGGCAACAUUCCGAGGGGACCGUCCCCUUGGUAAUGGCGAAUGGGACCCA [G1A C66U] | 0.353
20 | AGCCGGCAUGGUCCCAGCCUCCUCGCUGGCGCCGGCUGGGCAACAUUCCGAGGGGACCGUCCCCUCGGUAAUGGCGAAUGAGACCCA [G1A G81A] | 0.0462
21 | AGCCGGCAUGGUCCCAGCCUCCUCGCCGGCGCCGGCUGGGCAACAUUCCGAGGGGACCGUCCCCUCGGUAAUGGCGAAUGGGACCCA [G1A U27C] | 0.119
22 | AGCCGGCAUGGUCCCAGCCUCCUCGCAGGCGCCGGCUGGGCAACAUUCCGAGGGGACCGUCCCCUCGGUAAUGGCGAAUGGGACCCA [G1A U27A] | 0
23 | AGCCGCCAUGGUCCCAGCCUCCUCGCUGGCGCCGGCUGGGCAACAUUCCGAGGGGACCGUCCCCUCGGUAAUGGCGAAUGGGACCCA [G1A G6C] | 0.151
24 | AGCCGUCAUGGUCCCAGCCUCCUCGCUGGCGCCGGCUGGGCAACAUUCCGAGGGGACCGUCCCCUCGGUAAUGGCGAAUGGGACCCA [G1A G6U] | 0
25 | AGCCGGCAUGGUCCCAACCUCCUCGCUGGCGCCGGCUGGGCAACAUUCCGAGGGGACCGUCCCCUCGGUAAUGGCGAAUGGGACCCA [G1A G17A] | 0.0811
26 | AGCCGGCAUGGUCCCAGCCUCCUCGCUGGCGCCGGCUGGGCAACAUUCCGAGGGGACCGUCCCCUCGGUAAUCGCGAAUGGGACCCA [G1A G73C] | 0.0739
27 | AGCCGGCAUGGUCCCAGCCUCCUCGCUGGCGCCGGCUGGGCAACAUUCCGAGGGGACCGUCCCAUCGGUAAUGGCGAAUGGGACCCA [G1A C64A] | 0.131
28 | AGCCGGCAUGGUCCCAGCCUCCUCGCUGGCGCCGGCUGGGCAACAUUCCGAGGGGACCGUCCCUUCGGUAAUGGCGAAUGGGACCCA [G1A C64U] | 0.101
29 | AGCCGGCAUGGUCCCAGCCUCCUCGCUGGCGCCGGCUGGGCAACAAUCCGAGGGGACCGUCCCCUCGGUAAUGGCGAAUGGGACCCA [G1A U46A] | 0.0755
30 | AGCCGGCAUGGUCCCAGCCUCCUCGCUGGCGCCGGCUGGGCAACAGUCCGAGGGGACCGUCCCCUCGGUAAUGGCGAAUGGGACCCA [G1A U46G] | 0.138
31 | AGCCGGCAUGGUCCCAGCCUCCUCGCUGGCGCCGGCAGGGCAACAUUCCGAGGGGACCGUCCCCUCGGUAAUGGCGAAUGGGACCCA [G1A U37A] | 0.161
32 | AUCCGGCAUGGUCCCAGCCUCCUCGCUGGCGCCGGCUGGGCAACAUUCCGAGGGGACCGUCCCCUCGGUAAUGGCGAAUGGGACCCA [G1A G2U] | 0.852
